Where a chain is given by its changes, count along the chain named. Names may count otherwise.
T1: hErbB3.mFc (soluble dimeric human ErbB3 extracellular domain fused to mouse Fc) (human)
T1 construct: called dimeric
T1 chain: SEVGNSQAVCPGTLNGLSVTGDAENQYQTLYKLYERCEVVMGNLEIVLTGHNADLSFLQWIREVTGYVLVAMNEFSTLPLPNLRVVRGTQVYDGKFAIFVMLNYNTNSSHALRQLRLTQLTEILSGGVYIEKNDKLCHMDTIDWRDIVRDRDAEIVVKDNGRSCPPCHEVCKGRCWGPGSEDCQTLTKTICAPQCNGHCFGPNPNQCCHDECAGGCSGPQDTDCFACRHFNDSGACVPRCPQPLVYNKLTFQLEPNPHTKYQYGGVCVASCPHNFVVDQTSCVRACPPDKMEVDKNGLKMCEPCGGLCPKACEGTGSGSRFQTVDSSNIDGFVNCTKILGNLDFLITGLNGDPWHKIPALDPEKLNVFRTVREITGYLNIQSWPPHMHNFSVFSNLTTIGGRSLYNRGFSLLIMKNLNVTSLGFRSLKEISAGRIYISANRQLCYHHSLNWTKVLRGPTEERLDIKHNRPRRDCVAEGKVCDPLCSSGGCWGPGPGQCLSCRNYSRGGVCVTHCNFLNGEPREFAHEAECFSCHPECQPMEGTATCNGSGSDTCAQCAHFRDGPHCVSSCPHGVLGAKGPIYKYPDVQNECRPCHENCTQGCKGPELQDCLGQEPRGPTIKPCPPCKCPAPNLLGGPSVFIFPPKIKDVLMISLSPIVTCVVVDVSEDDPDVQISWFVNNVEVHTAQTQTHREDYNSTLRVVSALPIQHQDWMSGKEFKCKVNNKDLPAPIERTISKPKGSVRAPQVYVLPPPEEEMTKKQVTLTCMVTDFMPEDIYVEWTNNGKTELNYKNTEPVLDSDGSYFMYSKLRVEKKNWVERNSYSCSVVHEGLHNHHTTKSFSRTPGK

B1: H1M1940N (antibody, V domains shown)
VH: QVQVVESGGGVVQPGRSLRLSCAASGFTFSDYGMHWVRQAPGKGLEWVAIISYDGSNKYYADSVKGRFTVSRDNSKNTLYLQLDSLRPEDAAVFYCAREGAFNLDYYAMDVWGQGTTVTVSS
VL: AIQMTQSPSSLSASVGDRVTITCRASQDIRNDLGWYQQKPGKAPNLLIYAASSLQSGVPSRFSGSGSGTDFTLTISSLQPEDFATYYCLQDSNYPLTFGGGTKVEIK
notes: Hybridoma chimeric antibody: human variable domains, mouse constant domains (H1M prefix, mouse Fc)
B2: H4H1819N (antibody, V domains shown)
VH: EVQLVESGGGVVRPGGSLRLSCAASGFTFDDYAMHWVRQAPGKGLEWVAGISWNSGSIDYADSVKGRFTISRDNAKNSLYLQMNSLRAGDTALYYCAKDILDLDYYGLDVWGQGTTVTVSS
VL: DIQMTQSPSSLSASVGDRVTITCRASQDISSYLAWYQQKPGKVPNLLIYDASSLQSGVPSRFSGSGSGTDFTLTLSSLQPEDFASYYCQNYNSAPYTFGQGTKLEIK
notes: Human IgG4 Fc (H4H prefix); same variable domains as H1M1819N
B3: H2M1936N (antibody, V domains shown)
VH: EMQLVESGGGLVQPDRSLRLSCAASGFNFDNYAIHWVRQAPGKGLEWVSGISWNSGNIGYADSVKGRFTISRDNAKNSLFLLMNSLRPDDSALYYCTRGYNWNALSPMDVWGQGTTVTVSS
VL: B2 VL with I21V, D28G, S31N, N45K, D50A, S53T, L75I, F83V, Y96M, L104V
notes: Hybridoma chimeric antibody: human variable domains, mouse IgG2 Fc (H2M prefix)
B4: H4H1821N (antibody, V domains shown)
VH: EVQLVESGGGLVQPGRSLRLSCAASGFTFDDYAMHWVRQAPGKGLEWVSSISWNSGSIGYADSVKGRFTISRDNAKNSLYLQMNSLKPEDTALYYCTKDTDYGDYLDAFDIWGQGTMVAVAS
VL: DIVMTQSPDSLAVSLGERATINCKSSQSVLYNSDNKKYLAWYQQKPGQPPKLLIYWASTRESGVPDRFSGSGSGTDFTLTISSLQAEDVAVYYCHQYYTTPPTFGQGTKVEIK
notes: Human IgG4 Fc (H4H prefix); same variable domains as H2M1821N
B5: H2M1937N (antibody, V domains shown)
VH: QVQLQQWDAGLLKPSETLSLTCAVYGGSFSSYYWSWIRQPPGKGLEWIGEINHRGSTNYNPSLKSRVTISVDTSKNQFSLKLRSVTAADTAVYYCARGGVAARPDWHFFDYWGQGTLVTVSS
VL: DIQMTQSPSSLSASVGDRVTITCRASQVIRNDLGWFQQRPGKAPKRLIYAASSLQSEVPSRFSGSGSGTEFTLTITSLQPEDFATYYCLQHNSYPLTFGQGTRLEIK
notes: as for B3
B6: H2M1934N (antibody, V domains shown)
VH: EVQLVQSGGGLVKPGGSLRLSCAASGFTFSNFNMNWVRQAPGKGLEWVSFISSLSTYTYYADSVKGRFTISRDNAKNSLYLQMNSLRAEDTAVYYCARDDGDHDWFDPWGQGTLVTVSS
VL: EIVLTQSPDTLSLSPGERATLSCRASQSVSSNYLAWYQQKPGQAPRLLIYSASNRATGIPDRFSGSGSGTDFTLTISRLEPEDFAVYYCQQYDSSYTFGQGTKLEIK
notes: as for B3
B7: H2M1938N (antibody, V domains shown)
VH: EVQLVESGGGVVRPGGSLRLSCAASGFTFDDYGMSWVRQVPGKGLEWVSGLNWNGGITGYTDSVKGRFTISRDNAKNSLYLQMNSLRAEDTAFYHCARDSGDQDAFDIWGQGTMVTVSS
VL: QIVMTQSPATLSVSPGERATLSCRASQSITPYLAWYQQKPGQTPRLLIYGVSTRATGIPARFSGSGSGTEFTLTISSLQSEDFAVYYCQQYDNWYTFGQGTKLEIK
notes: as for B3

Assays:
[1] = target: T2, hErbB3.mmh (soluble monomeric human ErbB3 extracellular domain with C-terminal myc-myc-hexahistidine tag) (human, UniProt P21860 20-642); experiment: SPR (Biacore), 25 C, mAb capture format
Method: (§1) (Tables 2-4). Measurements were conducted on a Biacore 2000 or T100 instrument. […] Kinetic association (kₐ) and dissociation (kd) rate constants were determined by processing and fitting the data to a 1:1 binding model using Scrubber 2.0 curve fitting software.

[2] = target: T3, hErbB3.hFc (soluble dimeric human ErbB3 extracellular domain fused to human Fc) (human); experiment: SPR (Biacore), 25 C, mAb capture format
T3 construct: called dimeric
T3 sequence (chain, as listed by the source limits assumed): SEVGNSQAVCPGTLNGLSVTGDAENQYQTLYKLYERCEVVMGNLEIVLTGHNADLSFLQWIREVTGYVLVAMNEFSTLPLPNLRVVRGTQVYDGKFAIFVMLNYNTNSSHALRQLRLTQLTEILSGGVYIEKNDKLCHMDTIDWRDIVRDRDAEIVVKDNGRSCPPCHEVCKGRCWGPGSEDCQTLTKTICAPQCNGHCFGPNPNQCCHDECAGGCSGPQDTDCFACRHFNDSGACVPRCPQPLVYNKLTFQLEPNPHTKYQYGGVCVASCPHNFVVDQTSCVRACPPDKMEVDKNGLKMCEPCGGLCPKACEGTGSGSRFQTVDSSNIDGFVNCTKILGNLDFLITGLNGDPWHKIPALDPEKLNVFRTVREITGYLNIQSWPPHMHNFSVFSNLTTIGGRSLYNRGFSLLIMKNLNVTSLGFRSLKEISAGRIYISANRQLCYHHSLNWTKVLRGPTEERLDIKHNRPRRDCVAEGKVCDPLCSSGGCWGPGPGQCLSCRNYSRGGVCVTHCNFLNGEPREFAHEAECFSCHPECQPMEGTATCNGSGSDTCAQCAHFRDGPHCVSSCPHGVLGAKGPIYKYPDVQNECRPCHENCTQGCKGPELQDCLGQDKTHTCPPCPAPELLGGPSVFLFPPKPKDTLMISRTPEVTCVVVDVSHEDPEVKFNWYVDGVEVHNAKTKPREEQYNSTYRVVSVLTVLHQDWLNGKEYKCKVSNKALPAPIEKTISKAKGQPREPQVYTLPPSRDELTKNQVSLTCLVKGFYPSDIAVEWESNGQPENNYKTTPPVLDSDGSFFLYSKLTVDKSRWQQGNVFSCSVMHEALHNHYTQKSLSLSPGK
Method: as §1

[3] = target: T3, hErbB3.hFc (soluble dimeric human ErbB3 …); experiment: blocking ELISA: antibody + 50 pM ErbB3-hFc on neuregulin1b-coated plate
Text: To further characterize anti-hErbB3 mAbs of the present invention, their ability to block ligand binding was examined via ELISA. […] Plates were washed and non-sequestered (plate bound) ErbB3 was detected with an anti-Fc poly conjugated with horseradish peroxidase (HRP). Plates were developed with TMB (3,3′,5,5′-tetramethylbenzidine) and neutralized with sulfuric acid before reading absorbance at 450 nm on a Victor X5 plate reader. Data analysis used a sigmoidal dose-response model within Prism™ software. […] Maximal blocking for each antibody was calculated by taking the difference in absorbance from zero to 50 nM antibody on the inhibition curve, divided by the difference in absorbance from 50 pM to zero ErbB3 on the dose curve.

[4] = target: T1, hErbB3.mFc (soluble dimeric human ErbB3 …); experiment: SPR (Biacore), 25 C, mAb capture format
Method: as §1

[5] = target: T2, hErbB3.mmh (soluble monomeric human …); experiment: SPR (Biacore), 37 C, mAb capture format
Method: as §1

[6] = target: T1, hErbB3.mFc (soluble dimeric human ErbB3 …); experiment: SPR (Biacore), 37 C, mAb capture format
Method: as §1

| Binder | Kd [1] [nM] | T½ [1] [h] | koff [1] [s⁻¹] | kon [1] [M⁻¹ s⁻¹] | Kd [2] [nM] | T½ [2] [h] | koff [2] [s⁻¹] | kon [2] [M⁻¹ s⁻¹] | IC50 [3] [nM] | Maximal Blocking (%) [3] [%] | other results |
| --- | --- | --- | --- | --- | --- | --- | --- | --- | --- | --- | --- |
| B1 | 0.477 | 1.4 | 0.000138 | 289000 | 0.0529 | 7.92 | 2.43e-05 | 460000 | 0.53 | 80 | – |
| B2 | 0.0435 | 0.55 | 0.000351 | 8.1e+06 | – | – | – | – | – | – | Kd [4]: 0.000943 nM; T½ [4]: 12.5 h; koff [4]: 1.54e-05 s⁻¹; kon [4]: 1.64e+07 M⁻¹ s⁻¹; Kd [5]: 0.129 nM; T½ [5]: 0.117 h; koff [5]: 0.00156 s⁻¹; kon [5]: 1.21e+07 M⁻¹ s⁻¹; Kd [6]: 0.00153 nM; T½ [6]: 3.43 h; koff [6]: 5.62e-05 s⁻¹; kon [6]: 3.68e+07 M⁻¹ s⁻¹ |
| B3 | 6.59 | 0.683 | 0.000285 | 43200 | 1.09 | 2.77 | 6.97e-05 | 64100 | 0.527 | 91 | – |
| B4 | 0.051 | 1 | 0.000192 | 3.8e+06 | – | – | – | – | – | – | Kd [4]: 0.000355 nM; T½ [4]: 44.4 h; koff [4]: 4.33e-06 s⁻¹; kon [4]: 1.22e+07 M⁻¹ s⁻¹; Kd [5]: 0.167 nM; T½ [5]: 0.183 h; koff [5]: 0.00108 s⁻¹; kon [5]: 6.49e+06 M⁻¹ s⁻¹; Kd [6]: 0.00189 nM; T½ [6]: 5.43 h; koff [6]: 3.55e-05 s⁻¹; kon [6]: 1.87e+07 M⁻¹ s⁻¹ |
| B5 | 0.682 | 3.42 | 5.63e-05 | 82600 | 0.116 | 15.1 | 1.27e-05 | 110000 | 0.044 | 95 | – |
| B6 | 0.438 | 2.62 | 7.35e-05 | 168000 | 0.0222 | 24.2 | 7.97e-06 | 359000 | 0.0261 | 80 | – |
| B7 | 0.599 | 1.33 | 0.000144 | 241000 | 0.0301 | 14.2 | 1.36e-05 | 451000 | 0.0249 | 85 | – |

Reference: patent US20140072563A1 (Regeneron, published 2014)
